Measurements reported in the nanobody polyreactivity screen of Harvey et al. (2022).

Test: yeast display, Sf9 membrane polyspecificity reagent, FACS + sequencing; frameworks hold sequencing errors
How it was run: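 Using colony PCR, genes from sorted yeast display clones were amplified, then sequenced on MiSeq at 2 × 250 and filtered by CDR length. The clones had been stained with 10% biotinylated, detergent-solubilized Sf9 membrane reagent for 1 hour at 4 °C and sorted by FACS into low and high (top ~1%) gates on anti-HA and streptavidin fluorescence. Polyreactivity labels come from the gate of origin.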

QVQLVESGGGLVQAGGSLRLSCAASGRTFSTNDMGWYRQAPGKERELVAAIDFDSDSTYYADSVKGRFTISRDNAKNTVYLQMNSMKPEDTAVYYCAAQYFSYGESYEYWGQGTQVTVSS
polyreactivity (PSR sort gate): low polyreactivity

QVQLVESGGGLVQAGGSLRLSCAASGYTFSRNAMGWYRQAPGKERELVADINYSGGITYYADSVKGRFTISRDNAKNTVYLQMNSLKPEDTAVYYCAAVATNVPTHGRPSRRAYDYWGQGTQVTVSS
polyreactivity (PSR sort gate): low polyreactivity

QVQLVESGGGLVQAGGSLRLSCAASGSTFGYYTMGWYRQAPGKERELVAAITKSGGGTYYADSVKGRFTISRDNAKNTVYLQMNSLKPEDTAVYYCADYSRFTSDYWGQGTQVTVSS
polyreactivity (PSR sort gate): high polyreactivity

QVQLVESGGGLVQAGGSLRLSCAASGLTSYDYGMGWYRQAPGKERELVAAITWSGGSTYYADSVKGRFTISRDNAKNTVYLEMHSLKPEDTAVYYCAAESWGYGWYGYWGQGNQVTVSS
polyreactivity (PSR sort gate): low polyreactivity

QVQLVESGVGLVQAGRSLSLICAASGSTFFLYGMGWYIQAPGKERDLVAAITWNGGSTYYADSVKGRFTISRDNAKNTVYLQMKSLKPEDTAVYYCAADYYGFFSTPYDYWGQGTQVSVSS
polyreactivity (PSR sort gate): low polyreactivity

QVQLVESGGGLVQAGGSLRLSCAASGIIFSGNAMGWYRQAPGKERELVAAITRGGRTYYADSVKGRFTISRDNAKNTVFFQFNSLKPEDTAVYYCGAGYPYSYREYYYWGQGSQVTVSS
polyreactivity (PSR sort gate): high polyreactivity

QVQLVESAGGLVQAGGSLRLSCAASASIFYVYSMGWSRQAPGKEREFVAAISWRGGSTYYADSVKGRFTISRDNAKNTVYLQMISLKPEDTAVFYCNGRRLGYRSGHPGYYWGQGTQVTVSS
polyreactivity (PSR sort gate): high polyreactivity

QVQLVDSGGGLVQAGGSLSLSCAASGSTFKHYAMGWYRQAPGKERELVAAISSRGGSTHYADSVKGRFTISRDNAKNTVYLQMNSLKPEDTAVYYCARDTDTLSSRSSDYDYWGQGTQVTVSS
polyreactivity (PSR sort gate): low polyreactivity

QVQLVESGGGLVQAGGSLRLSCAASGLIFGFYAMGWYRQAPGKEWELVAAINSGGITYYADSVKGRFTISRDNAKNTVYLQMNSLKPEDTSVYYCAAVHSRRARYDYWGQGTQVTVSS
polyreactivity (PSR sort gate): low polyreactivity

QVQLVESGGGLVQAGGSLRLSCAASGSILYYNAMGWYRQAPGKERELVAAISQRGASTYYADSVKGRFTISRDNAKNTVYLQMNSLKPEDTAVYYCAARTRLTADPRYGISSKMYYWGQGTQVTVSS
polyreactivity (PSR sort gate): high polyreactivity

QVQLVESGGGLVQAGGSLRLSCAASGSIFPINAMGWSRQAPGKERELVAAITVSDGRTYYADSVKGRFTISRDNAKNTVYLQMNSLKPEDTAVYYCAAVTPFRVLYDYWGQGTQVTVSS
polyreactivity (PSR sort gate): low polyreactivity

QVQLVESGGGLVQAGGSLRLSCAASGRIFWGYDMGWYRQAPGKERELVAAINWSGGITNYADSVKGRFTISRDNAKNTVYLQMNSLKPEDTAVYYCAADTYWHRYYWGQGTQVTVSS
polyreactivity (PSR sort gate): high polyreactivity

QVQLVESGGGLVQAGGSLRLSCAASGRTFDDNAMGWYRPAPGKARELVAAISTTGSTNYADSVKGRFTISRDNAQTTVYLQMNSLKPEDTAFYYCAADSTPYVRSGNYDYWGQGTQVTVSS
polyreactivity (PSR sort gate): low polyreactivity

QVQLVESGGGLVQAGGSLRLSCAASGFIFYRYAKGWYRQPPGKERELVAAITKSGTSTYYADSVKGRFTISRDNAKNTVYLQMNSLKPEDTAVYYCNADVRSRSRGSSGYDYWGQGTQVTVSS
polyreactivity (PSR sort gate): low polyreactivity

QVQLVESGGGLVQAGGSLRLSCAASGFTFYPNAMGWYRQAPGKERELVAAISRSGSSTYYADSVKGRFTISRDNAKNTVYLQMNSLKPEDTAVYYCNRYGRQYDFYYWGQGTQVTVSS
polyreactivity (PSR sort gate): high polyreactivity

QVQLVESGGGLVQAGGSLRLSCAASGSTFFSNTMGWYRQAPGIERELVAAITSRGGRTYYADSVKGRFTISRDNAKNSVYLQMNSLKPEDTAVYYCAARFVLHGVYLKFYWGQGTQLTVSS
polyreactivity (PSR sort gate): high polyreactivity

QVQLVESGGGLVQAGGSLRLSCAASGSIFTRNAMGWYRQAPGKERELVATITSNDGSTNYADSVKGRFTISRDNAKNTVYLQMNSLKPEDTAVYYCNRSYGVYSEFDYWGQGTQVTVSS
polyreactivity (PSR sort gate): low polyreactivity

QVQLVESGGGLVQAGGSLRLSCAASGSTFVVYAMGWYRQAPGKERELLAAIRANVGGTYYADSVKGRFTISRDNAKNTVYLQMNSLKPEDTAVYYCAAGGYYYNPSFTYGILDYEYCGQGTQVTVSS
polyreactivity (PSR sort gate): low polyreactivity

QVQLVESGGGLVQAGGSLRLSCAASGRTFYRNDRGWYRQAPGKERELVAAITSSGGTTYADSVKGRFTISRDNAKNTVYLQMNSLKPEDTAVYYCNTVLYAYWQWDYEFDYWGQGTQVTVSS
polyreactivity (PSR sort gate): low polyreactivity

QVQLVESGGGLVQAGGSLRLSCDASGRIFTTYAMGWYRQAPGKERELVARITWSAGRTYYADSVKGRFTISRDNAKNTVYLQMNSLKPEDTAVYYCAADGGISAGANSGYDYWGQGTQVTVSS
polyreactivity (PSR sort gate): high polyreactivity

QVQLQESGGGLVQAGGSLRLSCAASGNISSYYRMGSYRQAPGKEREFVATIAVGGTTNYADSVKGRFTISRDNAKNTVYLQMNSLKPEDTAVCFCAANSTQYTWFDYWGQGTQVPVSS
polyreactivity (PSR sort gate): low polyreactivity

QVQLVESGGGLVQAGGSLRLSCAASGNILYDNAMGSYRQAPGKERELVAAIDWSGGSTYYADSVKGRFTISRDNAKNTVYLQMNSLKPEDTAVYYCAAESYIGKYGSYDYWGLGTQVTVSS
polyreactivity (PSR sort gate): low polyreactivity

QVQLVESGGGLVQAGGSLRLSCAASGSIFAGNVMGWYRQAPGKERELVAAISRRGGRTYYADSVKGRFTISRDNAKNTVYLQMNSLKPEDTAVYYCAARRDPVLGNSDFWGQGTQVTVSS
polyreactivity (PSR sort gate): high polyreactivity

QVQLVESGGGLVQAGGSLRLSCAASGIIFPTYAMGWYRQAPGKERELVAAITSGGSTYYADSVKGRFTISRDNAKNTVYLQMNSLKPEDTAVYYCAAAYLGYGAVQPSYEGGYWGQGTQVTVSS
polyreactivity (PSR sort gate): low polyreactivity

QVQLVESGGGLVQAGGRLRLSCAASGIIIDYYTMGWYRQAPGKERELVAAINKSGGSTYADSVKGRFTISRDNAKNTVYLQMNSLKPEDTAVYYCAAEVDYSYWPEYARKYYYWGQGTQVTVSS
polyreactivity (PSR sort gate): low polyreactivity

QVQLGESGGGLVQAGGSLRLTCAASGSIFSIYAMGWYIQAPGKERELVAAIDSGTSTTYADSVKGRFTISRDNAKYTVYLQMYSLKPEDTAVYYCAAALYSDVASVATYGYYWGQGTQVTVSS
polyreactivity (PSR sort gate): low polyreactivity

QVQLLESGGGLVQAGGSHRLSCAASGYIFHYNAMGWYIQAPGKERELVAAISYSGGSTYYADSVKGRFTISRDNAKNTVYLQMNSLKPEDTAVYYCAASRRPFPGYYWGQGTQVTVSS
polyreactivity (PSR sort gate): high polyreactivity

QVQLVESGGGLVQAGGSLRLICAASGRIFGYYVMGWSRQSPGKERQLVAAIRSSADSTYYADSVKGRFTISRDNAKNTVYLQMNSLKPEDTAVYYCAAQSPAYYTKSYWGQGTQVTVSS
polyreactivity (PSR sort gate): low polyreactivity

QVQLVESGGGLVQAGGSLRLSCAASGRTFFVNTMGWSRQAPGKERELVAAISDSGGSTYADSVKGRFTISRDNAKNTVNLQKNSLKPEDTAVYYCAARRRYPQRFGFDYWGQGTQVTVSS
polyreactivity (PSR sort gate): low polyreactivity

QVQLVESGGGLVQAGGSLRLSCGASGFTFQNYAMGWYRQARGKERELVAAIDSRGGRTYYADSVKGRFTISRDNAKNTVYLQMNSLKPEDTSVYYCAVAENKRCGAVGYYYWGQGTQVTVSS
polyreactivity (PSR sort gate): low polyreactivity

QVQLVESGGGLVQAGGSLRLSCAASGRTFAWYAMGWYRQAPGKERELVAAITTRGSGTYYADSVKGRFTISRDNAKNTVYIQMNSLKPEDTAVYYCAKDPITVTTVDERVYYWGQGTQVTVSS
polyreactivity (PSR sort gate): low polyreactivity
